How the values were obtained:
[1] = test system: Fall armyworm (Spodoptera frugiperda); test: Diet-surface overlay (DSO) bioassay; assay type: in vivo; settings: for Larva Stage I / Larva Stage II / Larva Stage III / Larva Stage IV / Dead Larva: number of individuals
How it was run: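 Enzyme treatments (0.1 mL) were spread and dried on artificial diet (no antibiotics), then one first-instar larva was placed per cell, 16 or 32 larvae per treatment. Trays were held at 27° C., 16:8 h light-dark, and developmental categories were counted after 7 days. Controls were filtered water and Btk spores at 1000 ppm.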

[2] = test system: Steinernema feltiae; test: In-vitro plate assay: Steinernema feltiae juvenile death after direct treatment; assay type: in vivo; settings: 40 μL per well (ILEVO 20 μL)
Procedure: To determine the effects of enzymes on an additional soil-dwelling nematode species (Steinernema feltiae), a NemAttack™ package containing approximately 5 million S. feltiae juveniles was purchased from ARBICO Organics. The nematodes arrived already hatched and dispersed within a powder. To prepare the nematodes for use, an aliquot of the dry nematode mixture was rehydrated in water. The liquid nematode mixture was adjusted to a concentration of 20-30 nematode juveniles per 10 μL. The free enzymes Esterase B (SEQ ID NO: 89) and Chitinase 19F (SEQ ID NO: 182) were produced as described in Example 2.
Potato dextrose agar media containing chloramphenicol and chlortetracycline was prepared and added to sterile twenty-four-well cell culture plates (1 mL per well). The plates were divided according to the pre-determined N-value for each treatment (N=12-24). […]
To quantify the treatments' effects on nematode viability, the nematodes were examined under a dissecting microscope at 20× magnification. Initial (T0) values for the number of live juveniles, number of dead juveniles and total number of juveniles were recorded immediately after preparation of each well. […] Approximately 20-22 hours post addition of juveniles, the plates were evaluated, and the number of live juveniles, dead juveniles and total number of juveniles were recorded. […]

[3] = test system: soybean cyst nematode (SCN); test: Soil application around soybean plants: SCN cysts per gram of root tissue; assay type: in vivo, Heterodera glycines; settings: Table 34; for Average cysts per g of root tissue: 0.5 mL/plant to soil, soybean 2830E3, 3 weeks, water control 139.8; for % Comparison to Control: water control = 100%, change in brackets
Procedure: To determine the efficacy of nematicidal enzymes applied to soil, a controlled environment trial was performed with 7-day old soybean plants (variety 2830E3) grown in pots. Enzymes were produced as described in Example 2. Prior to inoculation, 0.5 mL of neutral protease (SEQ ID NO: 127), esterase B (SEQ ID NO: 89), or chitinase 19F (SEQ ID NO: 182) free enzyme solution was applied to the soil around the base of each plant, or 0.5 mL of water was applied for the control (30 plants per treatment). Then, hatched SCN juveniles were applied to the soil around each plant as described in Example 2, and three weeks later, cysts per gram of root tissue was determined as described in Example 2. The data was analyzed as in Example 2 and appears in Tables 33 and 34.
To determine the efficacy of recombinant strains applied to soil, a controlled environment trial was performed as described in Example 18 above (Reduction of soybean cyst nematode reproduction by enzymes applied to soil), with the exception that a recombinant strain expressing neutral protease (SEQ ID NO: 127) was applied instead of a free enzyme solution. The recombinant strain was produced as in Example 3, and the treatment applied to soil as a whole cell broth.

[4] = test system: soybean cyst nematode (SCN, Heterodera glycines); test: Controlled environment soybean seed treatment trial: SCN cysts on roots; assay type: in vivo; settings: for % Comparison to Control: base control = 100%
[5] = Table 11, free enzyme seed treatment 2 fl oz/unit, soybean P18A98X, ILEVO 0.15 mg AI/seed, 3 weeks after inoculation, base control 71.4

B1: Streptomyces coelicolor Chitinase F (Chi19F) (protein)
chain: ASCSSYHAWSADANYNTGDIVRYTDGKAYIAEHANPGYDPLISTWYWDPYACDGGSQTPVGNFVVSEAQFNQMFPGRNSFYTYSGLTAALSAYPGFANTGSDTTKKQEAAAFLANVSHETGGLVYIVEQNTANYPHYCDWNQPYGCPAGQAAYYGRGPIQLSWNFNYKAAGDALGIDLLGNPWLVQNDAAVAWKTGLWYWNTQSGPGTMTPHNAMVNGAGFGQTIRSINGSLECDGKNPAQVQSRVTKYQQFAQILGVSPGGNLYC
modifications: Chitinase F (Chi19F); Streptomyces coelicolor
Larva Stage I ([1]; Table 48, chitinases, n = 32): 4 | Larva Stage II ([1]; Table 48, chitinases, n = 32): 14 | Larva Stage III ([1]; Table 48, chitinases, n = 32): 5 | Larva Stage IV ([1]; Table 48, chitinases, n = 32): 6 | Dead Larva ([1]; Table 48, chitinases, n = 32, dose per treatment in mU/mL Diet): 3 | Difference in Percent Death of Nematodes for 0 to 22 Hours ([2]; Table 24, water control 7%): 17% | Average cysts per g of root tissue [3]: 95.6 cysts per g of root tissue | % Comparison to Control [3]: 68% (−32%) | % Comparison to Control ([4]; Table 11): 68% | Average cysts per g of root tissue [4, 5]: 48.8 cysts per g of root tissue | % Comparison to Control ([4]; Table 12): 79% | Average cysts per g of root tissue ([4]; Table 12, seed treatment 2 fl oz/unit, ILEVO 0.15 mg AI/seed, base control 376.9): 296.9 cysts per g of root tissue

B2: Bacillus subtilis Esterase (EstB without signal sequence) (protein, listed as Bacillus subtilis)
chain: ESVHNPVVLVHGISGASYNFFAIKNYLISQGWQSNKLYAIDFYDKTGNNLNNGPQLASYVDRVLKETGAKKVDIVAHSMGGANTLYYIKYLGGGNKIQNVVTLGGANGLVSSTALPGTDPNQKILYTSIYSLNDQIVINSLSRLQGARNIQLYGIGHIGLLSNSQVNGYIKEGLNGGGLNTN
modifications: Esterase (EstB H191 without signal sequence)
Larva Stage I ([1]; Table 50, esterases, n=32): 3 | Larva Stage II ([1]; Table 50, esterases, n=32): 4 | Larva Stage III ([1]; Table 50, esterases, n=32): 14 | Larva Stage IV ([1]; Table 50, esterases, n=32): 10 | Dead Larva ([1]; Table 50, esterases, n=32, dose per treatment in U/mL Diet): 1 | individuals with delayed development ([1]; text to Table 50): 67% | Difference in Percent Death of Nematodes for 0 to 20 Hours ([2]; Table 23, water control 3%): 33% | Average cysts per g of root tissue [3]: 117.3 cysts per g of root tissue | % Comparison to Control [3]: 84% (−16%) | % Comparison to Control ([4]; Table 11): 27% | Average cysts per g of root tissue [4, 5]: 19.6 cysts per g of root tissue | Average cysts per g of root tissue ([4]; Table 15, seed treated with whole cell broth, base control 59.8): 56.3 cysts per g of root tissue | % Comparison to Control ([4]; Table 15, whole cell broth): 94% | % Comparison to Control ([4]; Table 25): 80% | Average cysts per g of root tissue ([4]; Table 25, soybean 3230E3, dried (PVP) formulation 0.04 units/seed, liquid 2 fl oz/unit, base control 289.9): 233.2 cysts per g of root tissue
